Assay: yeast display, Sf9 membrane polyspecificity reagent, FACS + sequencing; frameworks hold sequencing errors
Summary of the method: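 Polyreactivity labels are assigned by the sorting gate from which each nanobody was recovered. The gates were low and high (top ~1%), set on anti-HA fluorescence for expression and streptavidin fluorescence for reagent binding. Before sorting, galactose-induced (36–48 hours) yeast display cells were stained for 1 hour at 4 °C with 10% biotinylated, detergent-solubilized Sf9 membrane reagent.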

Sequence	polyreactivity (PSR sort gate)
QVQLVESGGGLVQAGGSLRLSCAASGSTLPGNVMGWYRQAPGKERELVAAISWTGGSTYYADSVKGRFTISRDNAKNTVYLQMNSLKPEDTAVYYCAVDAYESPWWSDPYEYWGQGTQVTVSS	low polyreactivity
QVQLVESGGGLVQAGGSLRLSCAASGSTLPRYTMGWYRQAPGKERELVAAISFSGSSTYYADSVKGRFTISRDNAKNTVYLQMNSMKPEDTSVYYCRYGYNYWGQGTQVTVSS	high polyreactivity
QVQLVESGGGLVQAGGSLRLSCAASGSTLQRYAMGWYRQAPGKERELVAAISSGGRTYYADSVKGRFTISRDNAKNTVYLQMNRLKPEDTAVYYCAAVLPARSEPVRYYYWGQGTQVTVSS	high polyreactivity
QVQLVESGGGLVQAGGSLRLSCAASGSTLRDYVMGWYRQAPGKERELVAAITSRVDDTYYADSVKGRFTISRDNAKNTVYLQMNSLKPEDTAVYDCAADYSVTLRIGGYYWFYAFDYWGQGTQVTVSS	low polyreactivity
QVQLVESGGGLVQAGGSLRLSCAASGSTLRGYTMGWYRQAPGKERELVAAISWSGASTYYADSVKGRFTISRDNAKNTVYLQMNSLKPEDTAVYYCNRAGRYVREYTVDYWGQGTQVTVSS	high polyreactivity
QVQLVESGGGLVQAGGSLRLSCAASGSTLRPYGMGWYRQAPGKERELVATIRSSSGRTYYADSVKGRFTISRDNAKNTVYLQMNSLKPEDTAVYYCARRYITNIKYDYWGQGTQVTVSS	high polyreactivity
QVQLVESGGGLVQAGGSLRLSCAASGSTLRSYTMGWYRQAPGKERELVAAITTTGRTYYADSVKGRFTISRDNAKNTVYLQMNSLKPEDTAVYYCNAVAPGKYNHWGQGTQVTVSS	high polyreactivity
QVQLVESGGGLVQAGGSLRLSCAASGSTLRTYAMGWYRQAPGKERELVAAISFSTTSTYYADSVKGRFTISRDNAKNTVYLQMNSLKPEDTAGYDCAAGPRTRYQPDLPGCYYSWGQGTQVTVSS	high polyreactivity
QVQLVESGGGLVQAGGSLRLSCAASGSTLRYNTMGWYRQAPGKERELVAAISVRGGSTYYADSVKGRFTISRDNAKNTVYLQMNSLKPEDTAVYYCARRIKLGQRQGGYYWGQGTQVTVSS	high polyreactivity
QVQLVESGGGLVQAGGSLRLSCAASGSTLSYYAMGWYRQAPGKERELVAAISFSGGITYYADSVKGRFTISRDNAKNTVYLQMNSLKPEDTAVYYIKAEYKVYRAYVIWYDYWGQGTQVTVSS	high polyreactivity
QVQLVESGGGLVQAGGSLRLSCAASGSTLSYYAMGWYRQAPGKERELVAAISSGGTTNYADSVKGRFTISRDNAKNTVYLQMNSLKPEDTAVYYCAAVRKSWWYSSEYYYWGQGTQVTVSS	low polyreactivity
QVQLVESGGGLVQAGGSLRLSCAASGSTLTANAMGWYRQAPGKERELVAAISSAGRTYYADSVKGRFTISRDNAKNTVYLQMNSLKPEDTAVYYCAAPYGQLFTQGTWYEYWGQGTQVTVSS	low polyreactivity
QVQLVESGGGLVQAGGSLRLSCAASGSTLVANAMGWYRQAPGKERELVARITSGTSTYYADSVKGRFTISRDNAKNTVYLQMNSLKPEDTAVYYCAAGRWTRRRTYDSWGQGTQVTVSS	high polyreactivity
QVQLVESGGGLVQAGGSLRLSCAASGSTLVGYVMGWYRQAPGKERELVAAITTVGSTYYADSVKGRFTISRDNAKNTVYLQMNSLKPEDTAVYYCAADRSDLAEEGYAGYDYWGQGTQVTVSS	low polyreactivity
QVQLVESGGGLVQAGGSLRLSCAASGSTLVGYVMGWYRQAPGKERELVATISRSGGSTYYADSVKGRFTISRDNAKNTVYLQMNSLKPEDTAVYYCATDLLNNVDYDYWGQGTQVTVSS	low polyreactivity
QVQLVESGGGLVQAGGSLRLSCAASGSTLVKYAMGWYRQAPGKERELVAAISWSGGRTYYADSVKGRFTISRDNAKNNVYLQMNSLKPEDTAVYYCAARRKAVRYDYWGQGTQVTVSS	high polyreactivity
QVQLVESGGGLVQAGGSLRLSCAASGSTLVQYVMGWYRQAPGKERELVAAISGSGGSTYYADSVKGRFTISRDNAKNTVYLQMNSLKPEDTAVYYCAASRRSGYGYWGQGTQVTVSS	high polyreactivity
QVQLVESGGGLVQAGGSLRLSCAASGSTLVRKAMGWYRQAPGKERELVAAISRSGGRTYYADSVKGRFTISRDNAKNTVYLQMNSLKPEDTAVYYCARLDGFSASDHDYWGQGTQVTVSS	high polyreactivity
QVQLVESGGGLVQAGGSLRLSCAASGSTLVTYAMAWYRQAPGKERELVAAISGGTGTDYADSVKGRFTISRDNAKNTVYLQMNSLKPEDTAVYYCAAKSSSNKVDYYYWGQGSQVTVSS	low polyreactivity
QVQLVESGGGLVQAGGSLRLSCAASGSTLVYNDMGWYRQAPGKEREFVAAIRSNDGSTYYADSVKGRFTISRDNAKNTVYLQMNSLKAEDTAVYYCNKDVWDGYDWPEFDYWGQGTQVTVSS	low polyreactivity
QVQLVESGGGLVQAGGSLRLSCAASGSTLVYNDMGWYRQAPGKEREFVAAIRSNDGSTYYADSVKGRFTISRDNAKNTVYLQMNSLKPEDTAVYYCNARNQVYKIYYSDYRRYDYWGQGTQVTVSS	low polyreactivity

Sequence	polyreactivity (PSR sort gate)
QVQLVESGGGLVQAGGSLRLSCAASGSTLVYYDMGWYRQAPGKERELVATITGTDSAYYAVSVKGRFTISRDNAMNTVYLQMNRLKPEDTADCAADRAASRADYEYWGQGTQVTVSS	low polyreactivity
QVQLVESGGGLVQAGGSLRLSCAASGSTLWIYAMGWYRQAPGKERELVAAISWSTGRTYYADSVKGRFTISRDNAKNTVYLQMNSLKPVDTAVYYCNAGPQHNTLKLFYYWGQGTQVTVSS	low polyreactivity
QVQLVESGGGLVQAGGSLRLSCAASGSTLWLYAMGWYRQAHGKERELVAVISNSGSTYYAESVKGRFTISRDNAKNTVYLQMNSLKPEDTAVYSCNKDGGGDSYWYDYWGQGTQVTVSS	low polyreactivity
QVQLVESGGGLVQAGGSLRLSCAASGSTLWYNAMGWYRQAPGKERELVATITAGGGSTYYADSVKGRFTISRDNAKNTVYLQMNSLKPEDTAVYYCATPVASVTGYDYWGQGTQVTVSS	low polyreactivity
QVQLVESGGGLVQAGGSLRLSCAASGSTLWYNAMGWYRQGPGKERELVASITSDGGSSTYADSVKGRFTISRDNAKYTVYLQMNSLKPEDTAVYYCAADWPIVQYDYWGQGTQVTVSS	low polyreactivity
QVQLVESGGGLVQAGGSLRLSCAASGSTLYCNAMGWYRQAPGKERELVAAISRSGGSTYYADSVKGRFTISRDNAKKTVYLQMNSLKPEDTAVYYCAARRYVPHTEYYYWGQGTQGTVSS	low polyreactivity
QVQLVESGGGLVQAGGSLRLSCAASGSTLYFYAMGGYRQAPGKERELVADITWSGGSTYYADSVKGRFTISRDNAKNTVYLQMNSLKPEDTAVYYCNADDWSTYWYGYPGYVYWGQGTQVTVSS	high polyreactivity
QVQLVESGGGLVQAGGSLRLSCAASGSTLYGNVMGWYRQAPGKERELVATINRGGSTNYADSVKGRFTISRDNAKNNVYLQMNSLKPEDTAVYYCAADYYGYWYDYEGDHWGQGTQVTVSS	low polyreactivity
QVQLVESGGGLVQAGGSLRLSCAASGSTLYHNAMGWYRQAPGKERELVAIINYSGDNTYYADSVKGRFTISRDNAKNTVFLQMNSLKPEDTAVYYCAADLYERGRQAWQYDYWGQGTQVTVSS	low polyreactivity
QVQLVESGGGLVQAGGSLRLSCAASGSTLYHYDMGWYRQAPGKERELVAAITTSGDSTYYADSVKGRFTISRDNAKNTVYLQMNSLKPEDTAVYYCNADVFKTVFYIDRYYYWGQGTQVTVSS	low polyreactivity
QVQLVESGGGLVQAGGSLRLSCAASGSTLYIYAMGWYRQAPGKERELVAAITSSTGSTYADSVKGRFTISRDNAKNTVYLQMNSLKPEDTAVFVCNAGGPLQPYDYWGQGTQVTVSS	low polyreactivity
QVQLVESGGGLVQAGGSLRLSCAASGSTLYPYAMGWYRQAPGKERELVAVITKSGGRTYYADSVKGRFTISRDNAKNTVYLQMNSLKPEDTAVYYCAAKSTYGRLGGDSWGQGTQVTVSS	high polyreactivity
QVQLVESGGGLVQAGGSLRLSCAASGSTLYRNAMGWYRQAPGKERELVAAINYRGTRTYYADSVKGRFTISRDNAKNTVYLQMNSLKPEDTAVYYCAKDYSQFVTYPYDYWGQGTQVTVSS	low polyreactivity
QVQLVESGGGLVQAGGSLRLSCAASGSTLYWYAMGWYRQAPGKERELVAVITSSGVSTYYADSVKGRFTISRDNAKNTVYLQMNSLKPEDTAVYYCNAKWYGWQRGTVKYDYWGQGTQVTVSS	low polyreactivity
QVQLVESGGGLVQAGGSLRLSCAASGSTLYYNAMGWYRQAPGKERELVAAITSGGSTSYADSVKGRFTISRDNAKNTVSFQMYSLKPEDTAVYYCAAVFYRRFDNWGQGTQVTVSS	low polyreactivity
QVQLVESGGGLVQAGGSLRLSCAASGSTNGRYAMGWYRQAPGKERELVAAISYSGGSTYYADTVKGRFTISRDNAKNTVYLQMNSLKPEDTAVYYCAAQYVRKYRVSRGYNYWGQGTQVTVSS	high polyreactivity
QVQLVESGGGLVQAGGSLRLSCAASGSTRIYAMGWYRQAPGKERELVAAISWTGGRTYYADSVKGRFTISRDNAKNTVYLQMNSLKPEDTAVYYCAAKGSGRDYWGQGTQVTVSS	high polyreactivity
QVQLVESGGGLVQAGGSLRLSCAASGSTRRYAMGWYRQAPGKERELVAAISSRGGSTYYADSVKGRFTISRDNAKNTVYLQMNSLKPEDTAVYYCAARTTRGPTFGYWGQGTQVTVSS	high polyreactivity
QVQLVESGGGLVQAGGSLRLSCAASGSTSALYAMGWYRQAPGKERELVATITRSGTTKYADSVKGRFTISRDNAKNTVYLQMNSLKPEDTAVYYCNTDTYFPLYDYWGQGTQVTVSS	low polyreactivity
QVQLVESGGGLVQAGGSLRLSCAASGSTSARYAMGWYRQAPGKERELVATITRSGTTKYADSVKGRFTISRDNAKNTVYLQMNSLKPEDTAVYYCNTDTYFPLYDYWGQGTQVTVSS	low polyreactivity
